# Laboratory results reported in US20190359693A1.
# Assays:
# Assay in all cases: cell-based or functional assay
# [1] = target: hemagglutinin (HA) of influenza A/HK/54/98 (H1N1) (influenza A virus)
# [2] = target: hemagglutinin (HA) of influenza A/PR8 H7N7-NY (H7N7) (influenza A virus)
# [3] = target: hemagglutinin (HA) of influenza A/Guiyang/1/57 (H2N2) (influenza A virus)
# [4] = target: hemagglutinin (HA) of influenza A/HK/466419/09 (H9N2) (influenza A virus)
# [5] = target: hemagglutinin (HA) of influenza A/Shanghai/2/13 (H7N9) (influenza A virus)
# [6] = target: hemagglutinin (HA) of influenza A/Great Cormorant/MPB1683/06 (H4N6) (influenza A virus)
# [7] = target: hemagglutinin (HA) of influenza A/Jiangxi/346/2013 (H10N8) (influenza A virus)
# [8] = target: hemagglutinin (HA) of influenza A/Aichi/2/68 (H3N2) (influenza A virus) (UniProt P03437)
# [9] = target: hemagglutinin (HA) of influenza A/Eurasian Wigeon/HK/MPF333/07 (H5N2) (influenza A virus)
# [10] = target: hemagglutinin (HA) of influenza A/Hiroshima/52/05 (H3N2) (influenza A virus)
# [11] = target: hemagglutinin (HA) of influenza A/Victoria/210/09 (H3N2) (influenza A virus)
# [12] = target: hemagglutinin (HA) of influenza B/Florida/04/06 (Yamagata) (influenza B virus)
# [13] = target: hemagglutinin (HA) of influenza A/Solomon Islands/3/2006 (IVR 145) (H1N1) (influenza A virus)
# [14] = target: hemagglutinin (HA) of influenza A/Brisbane/10/07 (H3N2) (influenza A virus)
# [15] = target: hemagglutinin (HA) of influenza A/Common Teal/MPF139/07 (H7N7) (influenza A virus)
# [16] = target: hemagglutinin (HA) of influenza A/Chick/Germany/N/49 (H10N7) (influenza A virus)
# [17] = target: hemagglutinin (HA) of influenza A/Perth/16/09 (H3N2) (influenza A virus)
# [18] = target: hemagglutinin (HA) of influenza A/Panama/2007/99 (H3N2) (influenza A virus)
# [19] = target: hemagglutinin (HA) of influenza A/AnnArbor/23/57 (H2N2) (influenza A virus)
# [20] = target: hemagglutinin (HA) of influenza A/Great Cormorant/MP2934/04 (H9N2) (influenza A virus)
# [21] = target: hemagglutinin (HA) of influenza A/Env/MPK659/09 (H12N5) (influenza A virus)
# [22] = target: hemagglutinin (HA) of influenza A/Common Teal/MPH11/08 (H10N3) (influenza A virus)
# [23] = target: hemagglutinin (HA) of influenza A/PR8 H5N1 HK97 (H5N1) (influenza A virus)
substance,measurement,setting,value
MD3606 (Fc fusion),Average neutralization titers,[1],5 nM
same,Average neutralization titers,[2],8.1 nM
same,Average neutralization titers,[3],26.7 nM
same,Average neutralization titers,[4],5.3 nM
same,Average neutralization titers,[5],22.8 nM
same,Average neutralization titers,[6],3.1 nM
same,Average neutralization titers,[7],18.3 nM
same,Average neutralization titers,[8],32.2 nM
same,Average neutralization titers,[9],7 nM
same,Average neutralization titers,[10],6.5 nM
same,Average neutralization titers,[11],6.5 nM
same,"ADCC induction (EC50 grade, FcγRIIIa reporter bioassay)",[12],< 0.1 µg/mL
same,Average neutralization titers,[12],1 nM
same,Average neutralization titers,[13],1.6 nM
same,Average neutralization titers,[14],4.1 nM
same,Average neutralization titers,[15],26.3 nM
same,Average neutralization titers,[16],10.2 nM
same,Average neutralization titers,[17],5.7 nM
same,Average neutralization titers,[18],40.5 nM
same,Average neutralization titers,[19],13.2 nM
same,Average neutralization titers,[20],9.7 nM
same,Average neutralization titers,[21],> 1000 nM
same,Average neutralization titers,[22],11.3 nM
same,Average neutralization titers,[23],6.5 nM
